Five molecules from patent publication US10562935B2, “Stapled peptides and uses thereof” (London Health Sciences Centre Research Inc., priority 2015, dated 2020) can be followed below.

Data set [1] can be described thus: Circular dichroism (CD) spectroscopy of HABD2 peptides in Milli-Q water (Example 1). In kind it is physicochemical. To be noted: for [θ]222/[θ]208 ratio of ellipticities / fH fraction helicity / Molar ellipticity [θ]192 / Molar ellipticity [θ]208 / Molar ellipticity [θ]222: 0.5 mM in Milli-Q water; for fH fraction helicity: equations 1-3; for α-helical character by CD (in words): Milli-Q water; for Molar ellipticity [θ]192: λ = 192 nm; for Molar ellipticity [θ]208: λ = 208 nm; for Molar ellipticity [θ]222: λ = 222 nm. The source says: In addition, a large mean residue ellipticity indicates greater α-helical character. […] This was predicted to be the case, as there is a lack of contributing residues that might form a hydrophobic core, thereby helping to stabilize the secondary structure of the linear peptide. For this reason, bridges were introduced into the peptides. […] The differences in α-helicity induced by the bridges placed at different points within each peptide may be due to the differences in their primary sequences. Specifically, two amino acids (at the i and i+4 position) have to be replaced in order to form the lactam bridge. In compound 133, leucine was replaced at both the i and i+4 position; while in compound 136, glutamine was replaced at the i position and aspartic acid was replaced at i+4. Leucine and glutamine are proposed to be helix-stabilizing residues.
A larger portion of the RHAMM protein was used as the reference for α-helical character of the truncated peptides. 7 kDa RHAMM (SEQ ID NO: 1) is a mini protein that is composed of 62 amino acids, which was derived from the C-terminus of the full-length RHAMM sequence. It contains both HABDs, and is predicted to have almost complete α-helix shape, similar to that of native full-length RHAMM.
A peptide's α-helicity can be quantified using equations 1-3: fH=[([θ]obs222−[θ]c)/([θ]max222−[θ]c)] (Equation 1) [θ]c=2220+53T (Equation 2) [θ]max222=(−44000+250T)(1−k/N) (Equation 3) where fH is the ratio of the average number of helical hydrogen bonds divided by the total number of hydrogen bonds that can be found in a peptide, T is the temperature in degrees Celsius, N is the number of residues in the peptide and k is a constant of ellipticity when 100% of the structure is α-helical (3 for carboxyamidated peptides).
Milli-Q water was chosen as the solvent in which all peptides would be dissolved for CD spectroscopy, as it is a UV invisible solvent, which is a requirement of the analytical technique, and it represents RHAMM's natural environment in the body. Luo and Baldwin [18] stated that when peptides are taken out of their native protein sequence, they usually show little to no helical formation in water alone. For this reason, TFE/H2O solutions are commonly used in studies to observe the α-helix characteristics, and may improve the helical nature of the peptides observed here. However, a helix-stabilizing solvent, such as TFE, would not be as contextually relevant, as there are no solvent stabilizing effects in the body. Thus use of TFE would tend to produce skewed results and not be representative of the peptide's natural behavior.

Data set [2] in a line: Circular dichroism (CD) spectroscopy of linear and stapled peptides in water or 40% TFE/water (Example 3). The data set is classed as physicochemical. Conditions: for [0]208 mean residue ellipticity: λ = 208 nm; for [0]222 mean residue ellipticity: λ = 222 nm. The procedure:
CD spectra were obtained on a Jasco J-810 spectropolarimeter and recorded in the range of 180-260 nm. Peptide solutions were prepared with a 0.1M phosphate buffer solution to a concentration of 0.5 mM. The measurements were performed in quartz cuvettes with a path length of 1 mm and a scanning speed of 10-50 nm/min. Five individual data points were averaged by the instrument in order to obtain the reported CD spectrum. The measurements were carried out at 20° C. A blank solution of 0.1M phosphate buffer solution was run before every measurement in order to baseline correct for any UV-interference observed from the buffer.
CD data for the 14- and 15-mer peptides containing HABD2 (VSKLRSQLVKRKQN, SEQ ID NO: 2) and HABD1 (NLKQKIKHVVKLKDE, SEQ ID NO: 4) and cyclized derivatives thereof in water or 40% TFE/water are provided below in Tables 8 (water) and 9 (40% TFE/water). Tables 8 and 9 provide the mean residue ellipicity ([θ] deg cm^2 dmol^−1) at λ=222 and 208 nm for each peptide and ratios of ellipticities at 222/208. Each of the peptides was acetylated at its amino terminus and amidated at its carboxy terminus.
CD data for linear peptides having the sequences […] (SEQ ID NO: 5) and […] (SEQ ID NO: 6) and cyclized derivatives thereof in water or 40% TFE/water are provided below in Tables 12 (water) and 13 (40% TFE/water). Tables 12 and 13 provide the mean residue ellipicity ([0] deg cm^2 dmol^−1) at λ=222 and 208 nm for each peptide and ratios of ellipticities at 222/208. Each of the peptides was acetylated at its amino terminus and amidated at its carboxy terminus.
Circular Dichroism (CD) spectroscopy is a tool that is used to study the secondary structure characteristics of a compound. Peptides and proteins can fold into organized structures, such as alpha helices and beta sheets, which are the result of complex hydrogen bonding and other interactions between amino acid side chains, as well as adopt a random coil formation, which lacks much of the organization of the other two structures. The CD spectrum of an alpha helix is characterized by two local minima at 208 nm and 222 nm. The ratio of the values of the molar ellipticities at these wavelengths ([θ]222/[θ]208) is a strong indication of the relative helicity of a compound; a compound is more helical when the ratio of these two values approaches 1.0. Synthetic constraints introduced to the peptide backbone can force a peptide chain to increase its helical character. These constraints can be introduced by staples, of varying types, which allow cyclization of the peptide backbone to take place.

Data set [3] can be described thus: Direct HA-binding ELISA of biotinylated peptides on HA coated plates (Example 4). Details: key to HA binding: absorbance (color) read at 450 nm. Conditions: for HA binding: as repeated in tables 16, 18, 20; for HA direct binding (OD): optical density, summary tables 15, 17, 19. The procedure: Each of these peptides was biotinylated at its amino-terminus, and an AEEA spacer was included to separate the peptide sequence from the biotin molecule.
HA coated plates were purchased (ECHELON). Peptides were dissolved in 2 mM PBS to constant molarity, aliquoted and stored at −20° C. until used in assays. 7 kDa biotin-labeled RHAMM (SEQ ID NO: 1) was synthesized and used as a positive control in these assays. Biotin labeled peptides were added to the HA coated wells (n=3 replicates/peptide) at either 0.8 or 0.08 μM and then incubated with shaking overnight at 4° C. Wells were washed free of excess unbound peptides using 200 μl PBS (4 times). 100 μl of Streptavidin-HRP was then added to each well and the plate was incubated at room temperature for 1 hr. The plate was then washed with 200 μl PBS/well 4 times and TMB Liquid Substrate System for ELISA (Sigma) was added to each well, incubated for 5-10 min at room temperature and color read at 450 nm Plate Reader (BioTek, SYNERGY H4, Hybrid Reader).
Direct HA-binding results for the biotinylated equivalents of compounds 132 and 150-161 are show in FIG. 39, and results for compounds 265-268 and 275-278 are shown in FIG. 40.

The mark [4] stands for this setting: [θ]222/[θ]208 ratio in water, summary tables 15, 17, 19.
Where [5] appears, read: as repeated in tables 16, 18, 20.

Bridges are numbered along the chain shown (N, C = ends).

Take “H-(cyclo-7,11)-VSKLRS[ELVKK]KQN-NH2 (H-VSKLRSELVKKKQN-NH2; lactam 7-11; SMILES CC(C)C[C@H](NC(=O)[C@H](CCCCN)NC(=O)[C@H](CO)NC(=O)[C@@H](N)C(C)C)C(=O)N[C@@H](CCCNC(=N)N)C(=O)N[C@@H](CO)C(=O)N[C@H]1CCC(=O)NCCCC[C@@H](C(=O)N[C@@H](CCCCN)C(=O)N[C@@H](CCC(N)=O)C(=O)N[C@@H](CC(N)=O)C(N)=O)NC(=O)[C@H](CCCCN)NC(=O)[C@H](C(C)C)NC(=O)[C@H](CC(C)C)NC1=O) [Compound 136]”: in data set [1], the “[θ]222/[θ]208 ratio of ellipticities” value is on record as 0.30, the fH fraction helicity is reported as 0.14, the “α-helical character by CD (in words)” value is given as “did not seem to stabilize” and the “Molar ellipticity [θ]192” value is given as 1437.80 deg cm^2 dmol^−1 residue^−1. For the same molecule, in data set [1], the “Molar ellipticity [θ]208” value is −5084.93 deg cm^2 dmol^−1 residue^−1 and the “Molar ellipticity [θ]222” value is given as −1568.07 deg cm^2 dmol^−1 residue^−1.

For “Ac-(cyclo-6,10)-VSKLR[KQLVE]RKQN-NH2 (Ac-VSKLRKQLVERKQN-NH2; lactam 6-10; SMILES CC(=O)N[C@H](C(=O)N[C@@H](CO)C(=O)N[C@@H](CCCCN)C(=O)N[C@@H](CC(C)C)C(=O)N[C@@H](CCCNC(=N)N)C(=O)N[C@H]1CCCCNC(=O)CC[C@@H](C(=O)N[C@@H](CCCNC(=N)N)C(=O)N[C@@H](CCCCN)C(=O)N[C@@H](CCC(N)=O)C(=O)N[C@@H](CC(N)=O)C(N)=O)NC(=O)[C@H](C(C)C)NC(=O)[C@H](CC(C)C)NC(=O)[C@H](CCC(N)=O)NC1=O)C(C)C) [Compound 155]”, the “[θ]222/[θ]208 ratio of ellipticities” value in data set [2] (setting [4]) was 0.37. The “[θ]222/[θ]208 ratio of ellipticities” value in data set [2] (setting [5]) was found to be 0.37. In data set [2] (in 40% TFE/water), the “[0]222/[0]208 ratio of ellipticities” value amounted to 0.75, the “[0]208 mean residue ellipticity” value is -1.71E+04 deg cm^2 dmol^−1 and the “[0]222 mean residue ellipticity” value is -1.28E+04 deg cm^2 dmol^−1. For the same molecule, in data set [2] (in water), the “[0]222/[0]208 ratio of ellipticities” value is reported as 0.37 and the “[0]208 mean residue ellipticity” value was -5.30E+03 deg cm^2 dmol^−1. In data set [3], the HA binding came to 0.05 and the “HA direct binding (OD)” value worked out at 0.05 OD.

For “H-(cyclo-5,9)-VSKL[ESQLK]KRKQN-NH2 (H-VSKLESQLKKRKQN-NH2; lactam 5-9; SMILES CC(C)C[C@@H]1NC(=O)[C@H](CCC(N)=O)NC(=O)[C@H](CO)NC(=O)[C@@H](NC(=O)[C@H](CC(C)C)NC(=O)[C@H](CCCCN)NC(=O)[C@H](CO)NC(=O)[C@@H](N)C(C)C)CCC(=O)NCCCC[C@@H](C(=O)N[C@@H](CCCCN)C(=O)N[C@@H](CCCNC(=N)N)C(=O)N[C@@H](CCCCN)C(=O)N[C@@H](CCC(N)=O)C(=O)N[C@@H](CC(N)=O)C(N)=O)NC1=O) [Compound 134]”, in data set [1], the “[θ]222/[θ]208 ratio of ellipticities” value is 0.57, the fH fraction helicity was found to be 0.22, the “α-helical character by CD (in words)” value is “increase in α-helix structure” and the “Molar ellipticity [θ]192” value was 1002.14 deg cm^2 dmol^−1 residue^−1. Besides, in data set [1], the “Molar ellipticity [θ]208” value is −7685.97 deg cm^2 dmol^−1 residue^−1 and the “Molar ellipticity [θ]222” value was −4403.89 deg cm^2 dmol^−1 residue^−1.

“Ac-(cyclo-5,9)-VSKL[KSQLE]KRKQN-NH2 (Ac-VSKLKSQLEKRKQN-NH2; lactam 5-9; SMILES CC(=O)N[C@H](C(=O)N[C@@H](CO)C(=O)N[C@@H](CCCCN)C(=O)N[C@@H](CC(C)C)C(=O)N[C@H]1CCCCNC(=O)CC[C@@H](C(=O)N[C@@H](CCCCN)C(=O)N[C@@H](CCCNC(=N)N)C(=O)N[C@@H](CCCCN)C(=O)N[C@@H](CCC(N)=O)C(=O)N[C@@H](CC(N)=O)C(N)=O)NC(=O)[C@H](CC(C)C)NC(=O)[C@H](CCC(N)=O)NC(=O)[C@H](CO)NC1=O)C(C)C) [Compound 154]”: the “[θ]222/[θ]208 ratio of ellipticities” value in data set [2] (setting [4]) was 0.20. The “[θ]222/[θ]208 ratio of ellipticities” value in data set [2] (setting [5]) is reported as 0.20. Also, in data set [2] (in 40% TFE/water), the “[0]222/[0]208 ratio of ellipticities” value was 0.75, the “[0]208 mean residue ellipticity” value is listed as -1.18E+04 deg cm^2 dmol^−1 and the “[0]222 mean residue ellipticity” value is -8.78E+03 deg cm^2 dmol^−1. In data set [2] (in water), the “[0]222/[0]208 ratio of ellipticities” value worked out at 0.20, the “[0]208 mean residue ellipticity” value is on record as -4,95E+03 deg cm^2 dmol^−1 and the “[0]222 mean residue ellipticity” value is listed as -9.74E+02 deg cm^2 dmol^−1. For the same molecule, in data set [3], the HA binding stood at 0.045 and the “HA direct binding (OD)” value came out at 0.045 OD.

B1: 7 kDa RHAMM: mini protein of 62 amino acids derived from the C-terminus of full-length RHAMM, contains both HABDs; reference for α-helical character (protein, listed as Mus musculus)
chain: RDSYAQLLGHQNLKQKIKHVVKLKDENSQLKSEVSKLRSQLVKRKQNELRLQGELDKALGIR
B1: in data set [1], the “[θ]222/[θ]208 ratio of ellipticities” value amounted to 0.46, the fH fraction helicity is 0.18, the “Molar ellipticity [θ]192” value is 1839.66 deg cm^2 dmol^−1 residue^−1 and the “Molar ellipticity [θ]208” value is given as −7553.76 deg cm^2 dmol^−1 residue^−1. Moreover, the “Molar ellipticity [θ]222” value in data set [1] is −4046.60 deg cm^2 dmol^−1 residue^−1.
